From publication doi:10.1101/2021.12.22.473891 (bioRxiv, 2021)

Target: recombinant human Top2a ΔC (1-1217), lacking the unstructured C-terminal domain (human, UniProt P11388 1-1217)
Test: native gel or EMSA

Sequence of recombinant human Top2a ΔC (1-1217), lacking the unstructured C-terminal domain (P11388 1-1217, stated change not applied): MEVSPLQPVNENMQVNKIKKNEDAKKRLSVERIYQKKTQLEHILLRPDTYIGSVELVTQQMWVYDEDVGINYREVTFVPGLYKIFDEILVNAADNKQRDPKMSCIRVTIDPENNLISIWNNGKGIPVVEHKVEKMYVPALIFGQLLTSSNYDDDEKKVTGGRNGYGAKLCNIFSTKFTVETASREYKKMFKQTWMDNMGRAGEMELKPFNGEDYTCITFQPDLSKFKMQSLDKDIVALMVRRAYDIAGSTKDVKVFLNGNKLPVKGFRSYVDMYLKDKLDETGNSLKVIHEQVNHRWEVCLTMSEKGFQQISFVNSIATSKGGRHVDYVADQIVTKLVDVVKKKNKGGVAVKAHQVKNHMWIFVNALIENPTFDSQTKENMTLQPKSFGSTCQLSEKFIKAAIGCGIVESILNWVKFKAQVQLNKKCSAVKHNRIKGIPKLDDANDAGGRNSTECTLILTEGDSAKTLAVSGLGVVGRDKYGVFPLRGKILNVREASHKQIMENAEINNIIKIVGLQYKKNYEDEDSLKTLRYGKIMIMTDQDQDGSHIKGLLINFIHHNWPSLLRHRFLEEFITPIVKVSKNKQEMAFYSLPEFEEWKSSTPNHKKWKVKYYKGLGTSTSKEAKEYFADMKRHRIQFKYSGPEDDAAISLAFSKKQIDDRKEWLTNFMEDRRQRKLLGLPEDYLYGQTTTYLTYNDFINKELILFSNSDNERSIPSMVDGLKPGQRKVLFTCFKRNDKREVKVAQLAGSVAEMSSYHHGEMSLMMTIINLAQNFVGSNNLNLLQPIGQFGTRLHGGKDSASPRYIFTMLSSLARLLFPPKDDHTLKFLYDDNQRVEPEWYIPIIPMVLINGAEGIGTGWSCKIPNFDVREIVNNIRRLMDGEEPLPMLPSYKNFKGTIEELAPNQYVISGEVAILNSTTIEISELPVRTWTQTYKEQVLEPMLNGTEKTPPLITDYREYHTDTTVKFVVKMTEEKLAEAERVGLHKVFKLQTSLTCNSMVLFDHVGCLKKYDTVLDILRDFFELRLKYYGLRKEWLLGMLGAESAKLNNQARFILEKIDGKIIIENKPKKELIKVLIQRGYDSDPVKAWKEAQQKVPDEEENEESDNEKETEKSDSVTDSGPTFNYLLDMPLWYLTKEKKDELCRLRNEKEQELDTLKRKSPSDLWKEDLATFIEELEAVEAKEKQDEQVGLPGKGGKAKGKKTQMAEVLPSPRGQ

- binding result: binds
B1: human dock II domain, full-length variant (RPA1^1060-1155) with C-terminal His-MBP-tag (domain or fragment)
chain: ADPKKALHHFRAIKKWQSKHPNTLLRRGAFLSYSQKIQEAVKALKLESENRNGRSPGTQEMLRMWYELDEESRRKYQKKAAACPDPSLSVWRPDIY
